The nanobody polyreactivity screen of Harvey et al. (2022)

Assay: yeast display, Sf9 membrane polyspecificity reagent, FACS + sequencing; frameworks hold sequencing errors
How it was run: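 Using colony PCR, genes from sorted yeast display clones were amplified, then sequenced on MiSeq at 2 × 250 and filtered by CDR length. The clones had been stained with 10% biotinylated, detergent-solubilized Sf9 membrane reagent for 1 hour at 4 °C and sorted by FACS into low and high (top ~1%) gates on anti-HA and streptavidin fluorescence. Polyreactivity labels come from the gate of origin.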

Sequence	polyreactivity (PSR sort gate)
QVQLVESGGGLVQAGGSLRLSCAASGFIFVAYALGWYRPAPGKERELVAAITSSGVTTYYADSVKGRFTISRDNAKNTVYLQMTSLKQDDTAVYFCAAYRRRSPFDYWGQGTQVTVSS	high polyreactivity
QVQLVESGGGLVQAGGSLRLSCAASGFIFVNYAMGWNRQAPGKERELVAAISARGGSTNYADSVKGRFTISRDNAKNTVYLQMNSLKPEDTAVYYCAARYTARRQSYGYWGQGTQVTVSS	high polyreactivity
QVQLVESGGGLVQAGGSLRLSCAASGFIFVRNAMGWYRQAPGKEREFVAAITRSGGSTYYADSVKGRFTISRDNAKNTVYLQMNCLKPEDTAVYYCAVLYHSRDRYTYRDEDYWGQGTQVTVSS	low polyreactivity
QVQLVESGGGLVQAGGSLRLSCAASGFIFVRYAMGWYRQAPGKERELVAAISWRGGSTYYADSVKGRFTISRDNAKNTVYLQMNSLKPEDTAVYYCAAVTWVHRYSRFHPFVAFDYWGQGTQVTVSS	high polyreactivity
QVQLVESGGGLVQAGGSLRLSCAASGFIFVTNAMGWYRQAPGKERELVAAINWSGGRTYYADSVKGRFTISRDNAKNTVYLQMNSLKPEDTAVYYCAADPYARLGEYGYCGQGTQVTVSS	low polyreactivity
QVQLVESGGGLVQAGGSLRLSCAASGFIFWDNAMGWYRQAPGKERELVAAISRNGGRTYYADSVKGRFTISRDNAKNTVYLQMNSLKPEDTAVYYCAAYTARSYGMDYWGQGTQVTVSS	high polyreactivity
QVQLVESGGGLVQAGGSLRLSCAASGFIFWDYAMGCYRQAPGKERELVAAISDSGGDTYYADSVKGRFTLSRDNAKNTVYLQMNSLKPEDPAVYYRAADVELWVFRGQQYDYWGQGTQETVSS	low polyreactivity
QVQLVESGGGLVQAGGSLRLSCAASGFIFWGNTMGWYRQAPGKERELVAAISSSGGRTYYADSVKGRFTISRDNAKNTVYLQMNSLKPEDTAVYYCAKVRRSDYDSDYWGQGTQVTVSS	high polyreactivity
QVQLVESGGGLVQAGGSLRLSCAASGFIFWGNTMVWYRQAPGKERELVAAITYSGGSTYYADSVKGRFTISRDNAKNTVYLQMNSLKPEDTAVYYCNKVFVYRGDYWGQGSQVTVSS	high polyreactivity
QVQLVESGGGLVQAGGSLRLSCAASGFIFWHYAMGWYRQAPGKERELVAAISWSGGRTYYADSVKGRFTISRDNAKNTVYLQMNSLKPEDTAVYYCARSKRVTPYEYDYWGQGTQVTVSS	high polyreactivity
QVQLVESGGGLVQAGGSLRLSCAASGFIFWHYTMGWYRQAPGKERELVAASTWTGGSTYYADSVKGRFTISRDNEKNTVYLQMNSLKPEETAVYYCNADYPGEGITYGYWGQGTQVTLSS	low polyreactivity
QVQLVESGGGLVQAGGSLRLSCAASGFIFWPYAMGWYRQAPGKERELVAAITRSGGSTYYADSVKGRFTISRDNAKNTVYLQMNSLKPEDTAVYYCAARKRGTFTYDYWGQGTQVTVSS	high polyreactivity
QVQLVESGGGLVQAGGSLRLSCAASGFIFWQNAMGWSRQAPGKEREWVADISWSGGGSTYYADSVKGRFTISRDNAKNTVYLQMNSLKPADTALYYCAASQVYSYYGTYYSAYDYWGQGTQVTVSS	low polyreactivity
QVQLVESGGGLVQAGGSLRLSCAASGFIFWYNAMGWYRQAPGKERELVAAITTAGSTNYADSVKGRFTISRDNAKNTVYLQMNSLKPEDTAVYYCAAVSSYWGQGTQVTVSS	low polyreactivity
QVQLVESGGGLVQAGGSLRLSCAASGFIFWYYAMGWYRQSPGTERELVAGITSGGSTNYADSVKGRFTISRDNAKNTVYLQMNSLKPEDTAVYYCAAAPYGGFGRGYDYWGQGTQVTVSS	high polyreactivity
QVQLVESGGGLVQAGGSLRLSCAASGFIFYAYAMGWYRQAPGKEREFVAAISARGGNTYYADSVKGRFTISRDNAKNSVYLQMNSLKPEDTAVYYCAIYGGYYYLSGYYYWGQGTQVTVSS	high polyreactivity
